# Experimental data taken from the DeepSol protein solubility set.
# Test: soluble on expression in E. coli; label from the status in PepcDB or PDB records
row,Sequence,soluble on expression in E. coli
1,MKEGDTMSWQTHTVFNQPAPLNNSNLFLSDGALCEAVSREGAGWDSDLLASIGQQLGTAESLELGRLANAHPPELLRYDPQGQRLDDVRFHPAWHLLMQGLCANRVHNLAWEEEARAGSFVARAARFVLHAQVEAGTLCPVTMTFAATPLLLQMLPATFHDWLAPLRSDRYDSHLLPGGQKRGLLIGMGMTEKQGGSDVLSNTTHAERLADDSYRLVGHKWFFSVPQSDAHLVLAQAKGGLSCFFVPRFLPDGQRNSVRLERLKDKLGNRSNASAEVEFQDAIGWRLGEEGEGIRHILKMGGMTRLDCALGSHGLMRRAFSVAIYHAHQRQAFGKPLIDQPLMRQTLSRMALCLEGQTALLFRLARAWEQRREAKEALWARLFTPAAKFAICKLGIPFVAEAMEVLGGMGYCEESELPRLYREMPVNSIWEGSGNIMCLDVLRVLTKQHGVYDVLSEAFAEVKGQDRHYDRAVRQLQQRLRKPDEAMGREITQQLFLLGCGAEMLRHASPPLAQAWCQMMLDTRGEMPLPAQVQNDLLLRATGGLR,not soluble
2,MKEGKWFASANNQNKFLDPRERGNILNYLKVCLLLARAVRRMHAAGLCHSDLSYKNVLIDPEQGHACIIDVDGLVVPGKFPPDVVGTPDFIAPEVVKTSHLLKEDPQRILPNITTDRHALSVLIYMYLFYRHPLRGGKIHDMDDEVRDESLAMGERALFIEHPTDRSNAVKLNQVKPSSLPWADPQKVPYTIMGPYLTQLFEKAFIDGLHDPSKRPTADEWETALVKTVDLIQPCQNTACEQKWYVFSGKTKPVCPYCLEHHHHHH,not soluble
3,MKEIDWANLSFGYMKTDYNVRINFRNGAWGELEVSSDEHLNLHMAATCLHYGQEAFEGLKAFRGKDGKVRIFRLEENAARLQSTCQGILMAELPTERFKEAILKVVKLNERFIPPYETGASLYIRPLLIGTSAQVGVHPAEEYMFVVFVTPVGPYFKGGFSTNPYVIIREFDRAAPHGTGIYKVGGNYAASLRANKKAHDLGYSCEFYLDAKEKKYIDECGAANFFGIKDNTYITPKSSSILPSITNKSLMQLAEDMGIKVERRPIPEEELETFEEAGACGTAAVISPIQRIDDLENGKSYVISKDGKPGPICTKLYNKLRGIQYGDEPDTHGWVTIVE,not soluble
4,MKEKKLNLKKHLNTVVTLNSDYLNLLDLMQITNANFPIGTFSHSFGVETYIRKDIVFDGESLIKALLLYMNEQLLHGDLLAIYQIFKLLPKQKINAIWEIDQMINFQGLARETREGQRRIGQQMVKIYNELFNCELLVEYAERIKNKKSYGNPAVAFALLAMHLKIDLKTALYTHLYSTVAALTQNCVRAIPLGQVKGQKIIYQLKHVYFDDIVNKVFTLDFKTDFCKNIPGLEIAQMEHEDTPVRLFMSLEHHHHHH,not soluble
5,MKELVEIAVPENLVGAILGKGGKTLVEYQELTGARIQISKKGEFLPGTRNRRVTITGSPAATQAAQYLISQRVTYEQGVRASNPQKV,soluble
6,MKEQKISPISVLDQSPMFVSGVMQRMYRNRAQAELCRQNQMTLEMASALAALEEFQPMSQQALADAVLTERSVAKRMVDNLEKRGFVCVSKSEANQRLKMLSLTKEGEATIKKVHQIMRNLQREFFSCLSEDESAEFFRLVRKMTLANNS,not soluble
7,MKEVPMILEICVDDVAGLEAAVRGGADRIELCAALSGGGVTPSAGFMQRAATYGLPVSVMIRPRAGDFVFTHDEADVMKRDIDAARAAGLSGVVLGASRGDGSLDMALLEDLRRHADGMDATLHRAFDVAPDMEEALEAAISLGFPRILTSGGARSALEGVKTLARLSELAKGRIVIMPGAGVRPQSVQALLDSFPITEIHASCSAVPLYDPESRVAKLGFTGAGRKATDEAAVRELKTILSAHHKGGATLLEHHHHHH,soluble
8,MKFAFIAKHRSIWPVAWLCEALGVSRSGFHAWFNRSPSEHARHDEVLLERIKQSFQSSDRTYGARRVWHDVLEEGLSCGLHRIERLMRLNALRARPRRRGFPKDAGDRPVVMPNVLDRQFVADRPNQKWVADFTYIWTAEGWLYVAAVIDLFSRRVVGWSMNANMTAQLVTDALIMAIWRRGKPDALLHHSDQGSQYTSEQFQRLMGDHGITCSMSRSGNVWDNAAMESFFSSLKTERTARKVYRTRNDARADVFDYIERFYNPKRRHSTLGYLSPDDFETKVGLA,soluble
9,MKFTPPPASLRNPLIIPEKIMMGPGPSNCSKRVLTAMTNTVLSNFHAELFRTMDEVKDGLRYIFQTENRATMCVSGSAHAGMEAMLSNLLEEGDRVLIAVNGIWAERAVEMSERYGADVRTIEGPPDRPFSLETLARAIELHQPKCLFLTHGDSSSGLLQPLEGVGQICHQHDCLLIVDAVASLCGVPFYMDKWEIDAVYTGAQKVLGAPPGITPISISPKALDVIRNRRTKSKVFYWDLLLLGNYWGCYDEPKRYHHTVASNLIFALREALAQIAEEGLENQIKRRIECAQILYEGLGKMGLDIFVKDPRHRLPTVTGIMIPKGVDWWKVSQYAMNNFSLEVQGGLGPTFGKAWRVGIMGECSTVQKIQFYLYGFKESLKATHPDYIFEESNGFH,soluble
10,MKGFQFKVIQEKLQGRQFINSDKIKPDHPQTIIKKTLLKEYQSKNFSCQEERDLFLEFTEKIVQNFHNINFNYLLKKFCKLPENYQSLKSQVKQIVQSENKANQQSCENLFNSLYDTEISYKQITNFLRQIIQNCVPNQLLGKKNFKVFLEKLYEFVQMKRFENQKVLDYICFMDVFDVEWFVDLKNQKFTQKRKYISDKRKILGDLIVFIINKIVIPVLRYNFYITEKHKEGSQIFYYRKPIWKLVSKLTIVKLEEENLEKVEEKL,soluble
11,MKGLFLIFHGFEAFNGISKKIRYQVKALKECGLEMHTCWLDDTDNHKRRMVDESIIADYGFGIKGKILKRIEFDSIVHYVQKENIDFIYVRYVHNASPFSIRLMKLLKKTGARIVMEIPTYPYDQEYKGLPFVYQRILFIDKCFRQHLARYVDKIVTFSDYDIIWNRPTIRISNGIDFSEIPLRGPKNDTAHSLQLIAVATMHPWHGFDRVIAGMANYYRTHTDTHDYKVYLNIVGFGVPELVDSYKKDVAKHQLEKYIIFHSALYGKELDAVFEQSDMGIGSLARHRSGIDKIKTLKNREYAARGIPFVYSETDDDFEHQPYILKAAPDDSPLDIEKVIRFYQSLKTTPLQIRMSIEQSLSWKAQMQIVINETFE,not soluble
12,MKGMFTPGNGPVQISAEAIKKRVEELGGEIARDYQGKTPHLICVLNGAFIFMADLVRAIPLPLTMDFIAISSYGNAFKSSGEVELLKDLRLPIHGRDVIVVEDIVDTGLTLSYLLDYLEARKPASVRVAALLSKPSRRQVEVPIHYLGFEIEDAYVYGYGLDRAQFDRNLPFITSIRPEEE,soluble
13,MKHGILVAYKPKGPTSHDVVDEVRKKLKTRKVGHGGTLDPFACGVLIIGVNQGTRILEFYKDLKKVFWVKMRLGLITETFDITGEVVEERECNVTEEEIREAIFSFVGEYDQVPPAYSAKKYKGERLYKLAREGKIINLPPKRVKIFKIWDVNIEGRDVSFRVEVSPGTYIRSLCMDIGYKLGCGATAVELVRESVGPHTIEESLNVFEAAPEEIENRIIPLEKCLEWLPRVVVHQESTKMILNGSQIHLEMLKEWDGFKKGEVVRVFNEEGRLLALAEAERNSSFLETLRKHERQERVLTLRKVFQTR,soluble
14,MKHHHHHHPMGHMQTLIFLDLEATGLPSSRPEVTELCLLAVHRRALENTSISQGHPPPVPRPPRVVDKLSLCIAPGKACSPGASEITGLSKAELEVQGRQRFDDNLAILLRAFLQRQPQPCCLVAHNGDRYDFPLLQTELARLSTPSPLDGTFCVDSIAALKALEQASSPSGNGSRKSYSLGSIYTRLYWQAPTDSHTAEGDVLTLLSICQWKPQALLQWVDEHARPFSTVKPMYGTPATTGTTNLR,soluble
15,MKHMPRKMYSCAFETTTKVEDCRVWAYGYMNIEDHSEYKIGNSLDEFMAWVLKVQADLYFHNLKFAGAFIINWLERNGFKWSADGLPNTYNTIISRMGQWYMIDICLGYKGKRKIHTVIYDSLKKLPFPVKKIAKDFKLTVLKGDIDYHKERPVGYKITPEEYAYIKNDIQIIAEALLIQFKQGLDRMTAGSDSLKGFKDIITTKKFKKVFPTLSLGLDKEVRYAYRGGFTWLNDRFKEKEIGEGMVFDVNSLYPAQMYSRLLPYGEPIVFEGKYVWDEDYPLHIQHIRCEFELKEGYIPTIQIKRSRFYKGNEYLKSSGGEIADLWLSNVDLELMKEHYDLYNVEYISGLKFKATTGLFKDFIDKWTYIKTTSEGAIKQLAKLMLNSLYGKFASNPDVTGKVPYLKENGALGFRLGEEETKDPVYTPMGVFITAWARYTTITAAQACYDRIIYCDTDSIHLTGTEIPDVIKDIVDPKKLGYWAHESTFKRAKYLRQKTYIQDIYMKEVDGKLVEGSPDDYTDIKFSVKCAGMTDKIKKEVTFENFKVGFSRKMKPKPVQVPGGVVLVDDTFTIK,soluble
16,MKIAGFDIGGANTDMAIIDFGSDGDMKEVRVDFRYLPMWLRKDELAETLLEMVGDDLHELEGVGVCMTAELVDAYPSKAAGVADIIDRVEGAFDVPVAYVSLSGMVDASEALADPMNIAAANWVATSQIASAMSSDCIMVDVGSTTTDIIPVKDGFEAARGRNDLERLSTGELVYTGTLRTNVATIVDRVPLQDKWFRVSSELFAVTADVHRVLGNIGESDYTCSTPDGAGKSVEECMLRIARVLCADLELLSPGDVLDVAEYIYHQQILKIAEGIAEVSEREGLEEVVTTGLGMKILAQRAAEVLELECRTMDEFLTEEECVVAPAVGTALLMEDYLQAQGLLEHHHHHH,not soluble
17,MKIAIASGKGGTGKTTVAVNLALALEEVQLFDCDVEEPNCNLFLGFEMEPVEEVVFLVPEINPDKCTLCRGCSDFCRYNALAAIPNRILSFPSLCHGCGGCSFVCPAGAIEEKPETIGIIQKALSDSPLTFFCGTLKIGKATATPVIKSLQNHIDESRPAIIDSPPGTACPVLAVMGFADYCVLVTESTPFGFHDFCLALEAARALNVPVGVVLNRDGLGDSRVEDFCRAEGIPILLRIPNDRTIARLYSEGIPFVKEMPEWKKQFKDMFETIKTGLYESKGVQLEHHHHHH,not soluble
18,MKIAIIGAGIGGLTAGALLLEKGHDVSIFERQSNISEVGAGIGIGDNVIKKLGKHDLAKGIKNAGQNLSAMNVLDDKGNILSAVKLKEATLNVTLARQTLIELIQSYVNPQCIYTDHDVIKVENVEQHTMVHFSNHASQSFDLCIGSDGLHSVVRQAIHQNAKILYQGYTCFRGLVDDADLHNIDIASEYWGKRGRVGIVPLINNQAYWFITINASEKDPKYQTFEKPHLQAYFNNYPEPVRQILDKQSETGIQKHDLYDMKPLKSFVNQRILLLGDAAHATTPNMGQGAGQAMEDAIVLVNCLAEYDIEKALKRYDKLRVKHTAKVIKRSRKIGKIAQKDNKLVISLRNGVMKRTPNRLLSGQTKFLYKAKHKLEHHHHHH,not soluble
19,MKIEKFKVLLYLKKSRPDKSGKAPIMGRITVNRSMVQFSCKLSCTPDLWNPRESRLNGKSNEAVEVNAKLDKLLLSIHAAFDTLVERKADFDAEAVKNLFQGSLETQMTLLAMTDIVCEELRKRIGIDRAKGTYPAYFYTRRTLAEFIQKKFHSKDIAFGQLTEQFIHDYQFFVVDDKGLTIETSRHYLAIIKKVCRKAYKEGYADKCFFAHFSLPKQEEKTPKALSRESFEKIRDLVIPEHRSSHILARDLFLFACYTGTSYADAVSVTRDNLFTDDEGSLWLKYRRKKNELQACVKLLPEALELIEKYNDDTRPTLFPMLYHPNLRRLMKCLAVLADIKEDLTYHAGRHSFASLITLEAGVPIETICKMLGHSNLQTTQRYAKVTPKKLFEDMDKYIEATKDLKLIL,not soluble
20,MKIFTVCQSGLGTSFMVQMNIQQILEEVGVDTDNFQIDHTDVGSASGDMADYFFVEKTLQDALGSIPAEKIIPLNAIIDYDETKEKVLKVLDDNGIAHQ,not soluble
